The nanobody polyreactivity screen of Harvey et al. (2022)

Experiment: yeast display, Sf9 membrane polyspecificity reagent, FACS + sequencing; frameworks hold sequencing errors
Outline: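 Using colony PCR, genes from sorted yeast display clones were amplified, then sequenced on MiSeq at 2 × 250 and filtered by CDR length. The clones had been stained with 10% biotinylated, detergent-solubilized Sf9 membrane reagent for 1 hour at 4 °C and sorted by FACS into low and high (top ~1%) gates on anti-HA and streptavidin fluorescence. Polyreactivity labels come from the gate of origin.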

QVQLVESGGGLVQAGGSLRLSCAASGSIFYHYAMGWYRQAPGKERELVAAISSGGSTSYADSVKGRFTISRDNAKNTVYLQMNSLKPEDTAVYYCNARRIRSRSWKYDYWGQGTQVTVSS
polyreactivity (PSR sort gate): low polyreactivity

QVQLVESGGGLVQAGGSLRLSCAASGRIFYSYAMGWYRQAPGKERELVAAISFSVGSTYYADSVKGRFTISRDNAKYTVYLQMNSLKPEDTAVYYCAASLGFPGYEYWGQGTQVTVSS
polyreactivity (PSR sort gate): low polyreactivity

QVQLVESGGGLVQAGGSLRLSCAASGHFFFYYTMGWYRPAPGKERELVAGITIGGSTNYADSVKGRFTISRDNAKHTVYVQMNSLKPEDTPVYYCNVVKYVYIYSYWEYYYCGQGTQVTVSS
polyreactivity (PSR sort gate): low polyreactivity

QVQLVESGGGLVQAGGSLRLSCAASGIIFQKYAMGWYRQEPGKERELVDAITRRGGSTYYADSVKGRFTISRDNAKNTVYLQMNSLKPEDTAVYYCAVQLRRHVDMDYWGQGTQVTVSS
polyreactivity (PSR sort gate): high polyreactivity

QVQLVESGGGLVQAGGSLRLSCAASGGTSQGNAMGWYRQAPGKERELVAAISWSGGTTYYADSVKGRFTISRDNAKNTVYLQMNSLKPEDTAVYYCAAYRYAGRYVPYGDYDYWGQGTQVTVSS
polyreactivity (PSR sort gate): low polyreactivity

QVQLVESGGGLVQAGGTLRLSCAASGSTFYLYAMGWYRQAPGNERELVAAISSAGGSTYYADSVKGRFTISRVNAKNTVYLQMNSLKPEDTAVYYCTRDIRRRGNYWGQGTQVTVSS
polyreactivity (PSR sort gate): high polyreactivity

QVQLVESGGGLVQAGGSLRLSCAASGITFFGYAMGWYRQAPGKERELVAAISTRGGSTYYADSVKGRFTISRDNAKNTVYLQMNSLKPEDTAFYYCNKEYYHKWAPTYDYWGQGTQVTVSS
polyreactivity (PSR sort gate): low polyreactivity

QVQLVESGGGLVQAGGSLRLSCAASGSIFEYYAMGWYRQAPGKERELVASITSGGRTYYADSVKGRFTISRDNAKNTVYLQMNSLKPEDTAVYYCAAAYYNWGYTFYWGQGTQVTVSS
polyreactivity (PSR sort gate): high polyreactivity

QVQLVESGGGLVQAGGSLRLSCAASGRNFSYYAMGWYRQAPGKERELVAAISWNGGSTYYADSVKGRFTISRDNAKNTVYLQMNSLKPEDTAVYYCAVLPHYEYDYWGQGTQVTVSS
polyreactivity (PSR sort gate): high polyreactivity

QVQLVESGGGLVQAGGSLRLSCAASGRIFVRNAMGWYRQAPGKERELVADITNGGSTNYADSVKGRFTISRDNAKNTVYLQMNSLKPEYTAVYYCAADTLGVYDGDYWGQGTQVTVSS
polyreactivity (PSR sort gate): low polyreactivity

QVQLVESGGGLVQAGGSLRLSCAASGSIFGFYGMGWYRQAPGKERELVAAISSRGGNTYYADSVKGRFTISRDNAKNTVYLQMNSLKPEDTAVYYCNAYRYVRHYSFDYWGQGTQVTVSS
polyreactivity (PSR sort gate): high polyreactivity

QVQLVESGGGLVQAGGSLRLSCAASGNILRSYAMGWYRQAPGKERELVAAISADGSGTYYADSVKGRFTISRDNAKNTVYLQMNSLKPEDTAVYYCAAERYFWWYYDPENYWGQGTQVTVSS
polyreactivity (PSR sort gate): high polyreactivity

QGQLVESGGGLVQAGGSLRLSCAASGIILSAYALGWYRQAPGNERELVAAITRRGGRTYYADSVKGRFTISRDNAKNTVYLQMNSLKPEDTAVYYCATVQSGRVRTYDYWGQGTQVTVSS
polyreactivity (PSR sort gate): high polyreactivity

QVQLEDSRVGLVQAVGILRLSCASSGSTIDDNVMGWYRQAPRNERELVAAICSSGGSPYYADSVKGRFTISRDNAKNTDYLLMNSLKPEDTAVYYCNAVYFRLWGYYDRRSYNYWGQGTQVTVSS
polyreactivity (PSR sort gate): low polyreactivity

QVQLVESGGGLVLAGGSLRLSCAASGRTFKENAKGWYRQAPGKARELVAVINSGGRTYYAVSVKGSFTISRDNAKNTVYLQMNSLKPEDSAVYYCAAYSRSKESGYWGQGTQVTVSS
polyreactivity (PSR sort gate): high polyreactivity

QVQLVESGGGLVQAGGSLRLSCAASGIIFDSNVMGWYRQAPGKERELVAAISRSGSRTYYADSVKGRFTISRDNSKNTVYLEMNSLKPEDTAVYYCATDSHTADEYEHWGQGTQVTVSS
polyreactivity (PSR sort gate): high polyreactivity

QVQLVESGGGLVHAGGSLRLSCAASGGIFGYYTMGWYRQAPGKERELVAAITWRGSTYYADSVKGRFTISRDNAKNTVYLQMNSLKPEDTAVYYCAARYYSPYGYWGQGTQVTVSS
polyreactivity (PSR sort gate): high polyreactivity

QVQLVESGGGIVQAGGSLRLSCAASGRTFSIYAMGWYRQAPGKERELVASITNSDGSTYYADSVKGRFTISRDNAKNTVYLQMNSLKPEDTAVYYCNDDSGISRVKYGYWGQATQVTVSS
polyreactivity (PSR sort gate): low polyreactivity

QVQLVESGGGLVQAGGSLRLSCAASGSILHPNGMGWYRQAPGKERELVAAITINGDSTYYADSVKGRFTISRDNAKNTVYLQMNSLKPEDTAVYYCAVDGWPTGWYYYWGQGTQVTVSS
polyreactivity (PSR sort gate): low polyreactivity

QVQLVESGGGLVQAGGSLRLSCAASGSTFGEYAMGWYRQAPGKERELVAVITWRDDSTYYADSVKGRFTISRDNAKNTVYLQMNSLKPEDTAVYYCNADIYQGNAGYIEVGTFGEYDYWGQGTQVTVSS
polyreactivity (PSR sort gate): low polyreactivity

QVQLVESGGGLVQAGGSLRLSCAASGIIFDWYTMGWYRQAPGKERELVAAISWRGGRTYYADSVKGRFTISRDNAKNTVYLQMNSLKPEDTAVYYCAAEAPVQPFYVFNTGIYELDYWGQGTQVTVSS
polyreactivity (PSR sort gate): low polyreactivity

QVQLVESGGGLVQAGGSLRLSCAASGRIFGYYAMGWYRQAPGKERELVAAIRWSSGRTYYADSVKGRFTISRDNAKNTVYLQMNSLKPEDTAVYYCAKDGGLRKFDYWGQGTQVTVSS
polyreactivity (PSR sort gate): high polyreactivity

QVQLVESGGGLVQAGGSLRLSCAASGITFTFNAMGWYRQAPGKERELVAAITWSGGSTFYADSVKGRFTITRDNAKNTVYLQMNSLKPEDTAVYYCARDTELYVRWLDYWGQGTQVTVSS
polyreactivity (PSR sort gate): low polyreactivity

QVQLVESGGGLVQAGGSLRLSCAASGRIFCGYMGWYRQAPGKEREFVAAISVRGGGTYYADSVKGRFTISRDNAKNTVYLQMNSLKPEDTAVDYCNTRGGWPYDYWGQGTQVTVSS
polyreactivity (PSR sort gate): low polyreactivity

QVQLVESGGGLVQAGGSLRLSCAASGRIFDPNVMGWYRQAPGKERELVAAIRTSGGRTYYADSVKGRFTISRDNAKNTVYLQMHSLKPEDTAVYYCAKVNRAFPKYLIYGYWGQGTQVTVSS
polyreactivity (PSR sort gate): high polyreactivity

QVQLVESGGGLVQAGGSLRLSCAASGSIFGNNAMGWYRQAPGKERELVATISYSGDSTYYADSVKGRFTISRDNAKNTVYLQMNSLKPEDTAVYYCAKQSDWVYKDRAYDYWGQGTQVTVSS
polyreactivity (PSR sort gate): low polyreactivity

QVQLEESGGGLVQAEGSLRLICAASGSTFVYAMGWYRQSPGKERELVAAISYSGGSTYYADSVKGRFTISRDNAKTTVYLQMNSLKPEDTAVYYCAAYLVISAQRYYYWGQGTQVTVSS
polyreactivity (PSR sort gate): high polyreactivity

QVQLVESGGGLVQAGGSLRLSCAASGITFRFYAMGWYRQAPGKERELVAAITSSGGSTYYADSVKGRFTISRDNAKNTVYLQMNSLKPEDTAVYYCAASYGAPYGYKRYYYWGQGTQVTVSS
polyreactivity (PSR sort gate): high polyreactivity

QDQLVESGGGLVQAGGSLRLSCAASGRLIPSYVMGGYRPAQGKETEFVAGIRRGGGSTYYADSVKGRFTISRDNAKNTVYLQMNSLKPEDTAVYYSAAVKYSRPGVYHGHDSWRQGTQVTVSS
polyreactivity (PSR sort gate): high polyreactivity

QVQLVESGGGLVQAGGSLRLSCAASAIIFDGNTMGWYRQAPGKEREFVAAISRNGGTTSYADSVKGRFTISRDNAKNTVYLQMNSLKPEDTAVYYCAADVETFWGWRYEYWGQGTQVTVSS
polyreactivity (PSR sort gate): low polyreactivity

QFQLVESGGGLVQAGGSLRLSCAASGSIFFYYAMGWYRQAPGKERELVAAITFTGGSTYYADSVKGRFTISRDNAKNTVYLQMNSLKPEDTAVYYCADYWYYGDEYVYWGQGTQVTVSS
polyreactivity (PSR sort gate): high polyreactivity

QVQLVESGGGLVQAGGSLRLSCAASGSIFYDKAMGRYRQAPGKEREFVAAISLRTGRTYYADSVKGRFTISRDNAKNTVYLQMNSLKPEDTAVYYCAARGYYGPKYYYWGQGTQVTVSS
polyreactivity (PSR sort gate): high polyreactivity
